The source of these data is patent publication US20230235012A1 (ALPINE IMMUNE SCIENCES, published 2023).

One experiment deals with T1, human ICOS (human, UniProt Q9Y6W8 21-199).
T1 construct: whole, on cells
T1 sequence (looked up): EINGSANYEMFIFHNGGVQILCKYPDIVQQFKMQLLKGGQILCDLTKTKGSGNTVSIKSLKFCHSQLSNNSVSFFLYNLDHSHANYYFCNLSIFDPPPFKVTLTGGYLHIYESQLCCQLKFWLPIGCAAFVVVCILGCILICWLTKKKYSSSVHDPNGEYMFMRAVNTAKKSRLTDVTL
In words: flow cytometry, transfected cells; protein from CHO. On the technique in general: Flow cytometry measures light scatter and fluorescence of single cells or particles in a stream.

The target of another experiment is T2, human CTLA-4 (human, UniProt P16410 36-223).
T2 construct: whole, on cells
The description is as above.

In the next experiment the target is T3, human CD28 (human, UniProt P10747 19-220).
T3 construct: whole, on cells
The description is as above.

For experiment [1], the target named is T4, human CTLA-4, full-length, expressed on transfected Expi293 cells (human, UniProt P16410 36-223).
T4 construct: whole, on cells
In words: flow cytometry, 100 nM, Expi293 cells with human CTLA-4.

Experiment [2] deals with T5, human ICOS, full-length, expressed on transfected Expi293 cells (human, UniProt Q9Y6W8 21-199).
T5 construct: whole, on cells
T5 sequence (looked up): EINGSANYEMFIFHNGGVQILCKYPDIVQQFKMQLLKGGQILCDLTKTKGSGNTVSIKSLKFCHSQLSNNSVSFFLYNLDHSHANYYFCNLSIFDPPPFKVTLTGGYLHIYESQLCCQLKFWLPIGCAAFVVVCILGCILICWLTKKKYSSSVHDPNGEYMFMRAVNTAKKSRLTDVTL
Description: flow cytometry, 100 nM, Expi293 cells with human ICOS.

Experiment [3] concerns the target T6, human CD28, full-length, expressed on transfected Expi293 cells (human, UniProt P10747 19-220).
T6 construct: whole, on cells
Description: flow cytometry, 100 nM, Expi293 cells with human CD28.

T2 sequence (P16410 36-223): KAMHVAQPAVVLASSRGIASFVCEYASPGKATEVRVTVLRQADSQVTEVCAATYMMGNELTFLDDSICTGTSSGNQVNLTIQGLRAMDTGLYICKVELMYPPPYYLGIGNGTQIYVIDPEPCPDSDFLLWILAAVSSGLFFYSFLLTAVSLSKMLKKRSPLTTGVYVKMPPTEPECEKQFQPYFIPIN
T4 sequence (P16410 36-223): as above

B1: ICOSL ECD Truncation #7 with N52H/N57Y/Q100R/C198R and E90K/E111G, Fc fusion (Fc fusion)
chain: DTQEKEVRAMVGSDVELSCACPEGSRFDLNDVYVYWQTSESKTVVTYHIPQHSSLEYVDSRYRNRALMSPAGMLRGDFSLRLFNVTPQDKQKFHCLVLSRSLGFQEVLSVGVTLHVAANFSVPVVSAPHSPSQDELTFTCTSINGYPRPNVYWINKTDNSLLDQALQNDTVFLNMRGLYDVVSVLRIARTPSVNIGCRIENGGGGSGGGGSEPKSSDKTHTCPPCPAPEAEGAPSVFLFPPKPKDTLMISRTPEVTCVVVDVSHEDPEVKFNWYVDGVEVHNAKTKPREEQYNSTYRVVSVLTVLHQDWLNGKEYKCKVSNKALPAPIEKTISKAKGQPREPQVYTLPPSREEMTKNQVSLTCLVKGFYPSDIAVEWESNGQPENNYKTTPPVLDSDGSFFLYSKLTVDKSRWQQGNVFSCSVMHEALHNHYTQKSLSLSPG
notes: not restated for the C198R set
Turning to B1, the MFI with human ICOS was determined as 54600 MFI; with human CTLA-4, 83700 MFI; with human CD28 it was 38900 MFI. Besides, the “MFI ratio to WT” value with human ICOS was found to be 0.5 fold; with human CTLA-4 it was 11 fold; in the experiment with human CD28 it was 22.5 fold.

B2: ICOSL ECD Truncation #7 with N52H/N57Y/Q100R/F172S and F83S, Fc fusion (Fc fusion)
chain: DTQEKEVRAMVGSDVELSCACPEGSRFDLNDVYVYWQTSESKTVVTYHIPQHSSLEYVDSRYRNRALMSPAGMLRGDFSLRLSNVTPQDEQKFHCLVLSRSLGFQEVLSVEVTLHVAANFSVPVVSAPHSPSQDELTFTCTSINGYPRPNVYWINKTDNSLLDQALQNDTVSLNMRGLYDVVSVLRIARTPSVNIGCCIENGGGGSGGGGSEPKSSDKTHTCPPCPAPEAEGAPSVFLFPPKPKDTLMISRTPEVTCVVVDVSHEDPEVKFNWYVDGVEVHNAKTKPREEQYNSTYRVVSVLTVLHQDWLNGKEYKCKVSNKALPAPIEKTISKAKGQPREPQVYTLPPSREEMTKNQVSLTCLVKGFYPSDIAVEWESNGQPENNYKTTPPVLDSDGSFFLYSKLTVDKSRWQQGNVFSCSVMHEALHNHYTQKSLSLSPG
Take B2: the MFI in the experiment with human ICOS turned out to be 106000 MFI; with human CTLA-4 it was 207000 MFI; with human CD28, 88300 MFI. The figures for the “MFI ratio to WT” value with human ICOS, in the experiment with human CTLA-4 and with human CD28 were 1.1 fold, 27.3 fold and 51.1 fold, respectively.

B3: ICOSL ECD Truncation #6 with N52H/N57Y/Q100R/F172S, Fc fusion (Fc fusion)
chain: DTQEKEVRAMVGSDVELSCACPEGSRFDLNDVYVYWQTSESKTVVTYHIPQHSSLEYVDSRYRNRALMSPAGMLRGDFSLRLFNVTPQDEQKFHCLVLSRSLGFQEVLSVEVTLHVAANFSVPVVSAPHSPSQDELTFTCTSINGYPRPNVYWINKTDNSLLDQALQNDTVSLNMRGLYDVVSVLRIARTPSVNIGCCIENVLLGGGGSGGGGSEPKSSDKTHTCPPCPAPEAEGAPSVFLFPPKPKDTLMISRTPEVTCVVVDVSHEDPEVKFNWYVDGVEVHNAKTKPREEQYNSTYRVVSVLTVLHQDWLNGKEYKCKVSNKALPAPIEKTISKAKGQPREPQVYTLPPSREEMTKNQVSLTCLVKGFYPSDIAVEWESNGQPENNYKTTPPVLDSDGSFFLYSKLTVDKSRWQQGNVFSCSVMHEALHNHYTQKSLSLSPG
Turning to B3, the MFI with human ICOS worked out at 90100 MFI; with human CTLA-4, 240000 MFI; with human CD28 it was 91300 MFI. The “MFI ratio to WT” value in the experiment with human ICOS stood at 0.9 fold; in the experiment with human CTLA-4, 31.6 fold; in the experiment with human CD28, 52.8 fold.

B4: ICOSL ECD Truncation #6 with N52H/N57Y/Q100R/C198R, Fc fusion (Fc fusion)
chain: DTQEKEVRAMVGSDVELSCACPEGSRFDLNDVYVYWQTSESKTVVTYHIPQHSSLEYVDSRYRNRALMSPAGMLRGDFSLRLFNVTPQDEQKFHCLVLSRSLGFQEVLSVEVTLHVAANFSVPVVSAPHSPSQDELTFTCTSINGYPRPNVYWINKTDNSLLDQALQNDTVFLNMRGLYDVVSVLRIARTPSVNIGCRIENVLLGGGGSGGGGSEPKSSDKTHTCPPCPAPEAEGAPSVFLFPPKPKDTLMISRTPEVTCVVVDVSHEDPEVKFNWYVDGVEVHNAKTKPREEQYNSTYRVVSVLTVLHQDWLNGKEYKCKVSNKALPAPIEKTISKAKGQPREPQVYTLPPSREEMTKNQVSLTCLVKGFYPSDIAVEWESNGQPENNYKTTPPVLDSDGSFFLYSKLTVDKSRWQQGNVFSCSVMHEALHNHYTQKSLSLSPG
notes: as for B1
As for B4, the figures for the MFI with human ICOS, in the experiment with human CTLA-4 and with human CD28 were 91400 MFI, 236000 MFI and 84600 MFI, respectively. The “MFI ratio to WT” value in the experiment with human ICOS amounted to 0.9 fold; with human CTLA-4, 31.1 fold; in the experiment with human CD28 it was 49 fold.

B5: ICOSL ECD Truncation #4 with N52H/N57Y/Q100R/F172S and E200G, Fc fusion (Fc fusion)
chain: DTQEKEVRAMVGSDVELSCACPEGSRFDLNDVYVYWQTSESKTVVTYHIPQHSSLEYVDSRYRNRALMSPAGMLRGDFSLRLFNVTPQDEQKFHCLVLSRSLGFQEVLSVEVTLHVAANFSVPVVSAPHSPSQDELTFTCTSINGYPRPNVYWINKTDNSLLDQALQNDTVSLNMRGLYDVVSVLRIARTPSVNIGCCIGNVLLQQNGGGGSGGGGSEPKSSDKTHTCPPCPAPEAEGAPSVFLFPPKPKDTLMISRTPEVTCVVVDVSHEDPEVKFNWYVDGVEVHNAKTKPREEQYNSTYRVVSVLTVLHQDWLNGKEYKCKVSNKALPAPIEKTISKAKGQPREPQVYTLPPSREEMTKNQVSLTCLVKGFYPSDIAVEWESNGQPENNYKTTPPVLDSDGSFFLYSKLTVDKSRWQQGNVFSCSVMHEALHNHYTQKSLSLSPG
Turning to B5, the values for the MFI with human ICOS, in the experiment with human CTLA-4 and in the experiment with human CD28 were 108000 MFI, 320000 MFI and 80600 MFI, respectively. For the same molecule, the “MFI ratio to WT” value with human ICOS came out at 1.1 fold; with human CTLA-4, 42.3 fold; with human CD28 it was 46.6 fold.

B6: ICOSL ECD with N52H/N57Y/Q100R/C198R, Fc fusion (Table 30C) (Fc fusion)
chain: DTQEKEVRAMVGSDVELSCACPEGSRFDLNDVYVYWQTSESKTVVTYHIPQHSSLEYVDSRYRNRALMSPAGMLRGDFSLRLFNVTPQDEQKFHCLVLSRSLGFQEVLSVEVTLHVAANFSVPVVSAPHSPSQDELTFTCTSINGYPRPNVYWINKTDNSLLDQALQNDTVFLNMRGLYDVVSVLRIARTPSVNIGCRIENVLLQQNLTVGSQTGNDIGERDKITENPVSTGEKNAATGGGGSGGGGSEPKSSDKTHTCPPCPAPEAEGAPSVFLFPPKPKDTLMISRTPEVTCVVVDVSHEDPEVKFNWYVDGVEVHNAKTKPREEQYNSTYRVVSVLTVLHQDWLNGKEYKCKVSNKALPAPIEKTISKAKGQPREPQVYTLPPSREEMTKNQVSLTCLVKGFYPSDIAVEWESNGQPENNYKTTPPVLDSDGSFFLYSKLTVDKSRWQQGNVFSCSVMHEALHNHYTQKSLSLSPG
notes: as for B1
In the case of B6, the values for the MFI with human ICOS, with human CTLA-4 and in the experiment with human CD28 were 139000 MFI, 133000 MFI and 59200 MFI, respectively. Further, the entries for the “MFI ratio to WT” value in the experiment with human ICOS, with human CTLA-4 and with human CD28 were 1.4 fold, 17.5 fold and 34.3 fold, respectively.

B7: variant ICOSL IgV-Fc fusion N52H/N57Y/Q100R (Fc fusion, not shown: a dimerising Fc or GST)
chain: DTQEKEVRAMVGSDVELSCACPEGSRFDLNDVYVYWQTSESKTVVTYHIPQHSSLEYVDSRYRNRALMSPAGMLRGDFSLRLFNVTPQDEQKFHCLVLSRSLGFQEVLSVEVTLHVAANFSV
Turning to B7, the MFI is 817000 MFI in experiment [1], 200000 MFI in experiment [2] and 142000 MFI in experiment [3]. Further, the “MFI ratio to WT (ΔWT)” value in experiment [1] stood at 2.47 fold; in experiment [2], 0.94 fold; in experiment [3], 6.4 fold.

B8: ICOSL IgV with N52H/N57Y/Q100R and H48R/S54P, Fc fusion (Fc fusion)
chain: DTQEKEVRAMVGSDVELSCACPEGSRFDLNDVYVYWQTSESKTVVTYRIPQHSPLEYVDSRYRNRALMSPAGMLRGDFSLRLFNVTPQDEQKFHCLVLSRSLGFQEVLSVEVTLHVAANFSVGGGGSGGGGSEPKSSDKTHTCPPCPAPEAEGAPSVFLFPPKPKDTLMISRTPEVTCVVVDVSHEDPEVKFNWYVDGVEVHNAKTKPREEQYNSTYRVVSVLTVLHQDWLNGKEYKCKVSNKALPAPIEKTISKAKGQPREPQVYTLPPSREEMTKNQVSLTCLVKGFYPSDIAVEWESNGQPENNYKTTPPVLDSDGSFFLYSKLTVDKSRWQQGNVFSCSVMHEALHNHYTQKSLSLSPG
For B8, the MFI with human ICOS was found to be 143000 MFI; with human CTLA-4, 322000 MFI; in the experiment with human CD28, 75300 MFI. Further, the results for the “MFI ratio to WT” value with human ICOS, with human CTLA-4 and with human CD28 were 1.4 fold, 42.4 fold and 43.6 fold, respectively.

B9: ICOSL ECD Truncation #8 with N207G/L208G and N52H/N57Y/Q100R/F172S, Fc fusion (Fc fusion)
chain: DTQEKEVRAMVGSDVELSCACPEGSRFDLNDVYVYWQTSESKTVVTYHIPQHSSLEYVDSRYRNRALMSPAGMLRGDFSLRLFNVTPQDEQKFHCLVLSRSLGFQEVLSVEVTLHVAANFSVPVVSAPHSPSQDELTFTCTSINGYPRPNVYWINKTDNSLLDQALQNDTVSLNMRGLYDVVSVLRIARTPSVNIGCCIENVLLQQGGTGGGGSGGGGSEPKSSDKTHTCPPCPAPEAEGAPSVFLFPPKPKDTLMISRTPEVTCVVVDVSHEDPEVKFNWYVDGVEVHNAKTKPREEQYNSTYRVVSVLTVLHQDWLNGKEYKCKVSNKALPAPIEKTISKAKGQPREPQVYTLPPSREEMTKNQVSLTCLVKGFYPSDIAVEWESNGQPENNYKTTPPVLDSDGSFFLYSKLTVDKSRWQQGNVFSCSVMHEALHNHYTQKSLSLSPG
For the molecule B9, the MFI with human ICOS is 133000 MFI; in the experiment with human CTLA-4, 308000 MFI; with human CD28 it was 108000 MFI. Also, the “MFI ratio to WT” value with human ICOS turned out to be 1.3 fold; with human CTLA-4 it was 40.7 fold; with human CD28, 62.4 fold.
